This note sets out measurements from paper PMC8051604.

Test [1] deals with CitERF33, split-YFP fusion (BiFC) (Citrus reticulata cv. Suavissima (Ougan)).
Test [2] deals with CitCHS2 (citrus chalcone synthase 2), pGADT7 fusion (Citrus reticulata cv. Suavissima (Ougan)).
For test [3], the target named is CitCHS1 (citrus chalcone synthase 1), pGADT7 fusion (Citrus reticulata cv. Suavissima (Ougan)).

For “CitRAV1, split-YFP fusion (BiFC) (natural protein)”, the activation of the CitCHIL1 promoter by CitERF33 and CitRAV1 together (dual-luciferase assay in N. benthamiana leaves, LUC/REN against empty vector; 1.6-fold for CitERF33/EV or CitRAV1/EV) in test [1] was determined as 10.6 fold.
In the case of “CitCHIL1 (citrus type IV chalcone isomerase), pGBKT7 fusion (natural protein)”, in test [2], the k cat value of CitCHS2 for malonyl-CoA with CitCHIL1 against without it (in vitro chalcone synthase assay, purified recombinant proteins) amounted to 1.33 fold and the k cat value of CitCHS2 for p-coumaroyl-CoA with CitCHIL1 against without it (in vitro chalcone synthase assay, purified recombinant proteins) stood at 1.43 fold. Moreover, in test [3], the k cat value of CitCHS1 for malonyl-CoA with CitCHIL1 against without it (in vitro chalcone synthase assay, purified recombinant proteins) amounted to 1.86 fold and the k cat value of CitCHS1 for p-coumaroyl-CoA with CitCHIL1 against without it (in vitro chalcone synthase assay, purified recombinant proteins) worked out at 1.81 fold.
